{"source": "patent US20230192878A1", "about": "(published 2023)", "binders": {"B1": {"name": "PF-06863135 (bispecific antibody, human IgG2)", "heavy 1": "EVQLVESGGGLVQPGGSLRLSCAASGFTFSDYYMTWVRQAPGKGLEWVAFIRNRARGYTSDHNPSVKGRFTISRDNAKNSLYLQMNSLRAEDTAVYYCARDRPSYYVLDYWGQGTTVTVSSASTKGPSVFPLAPCSRSTSESTAALGCLVKDYFPEPVTVSWNSGALTSGVHTFPAVLQSSGLYSLSSVVTVPSSNFGTQTYTCNVDHKPSNTKVDKTVERKCRVRCPRCPAPPVAGPSVFLFPPKPKDTLMISRTPEVTCVVVAVSHEDPEVQFNWYVDGVEVHNAKTKPREEQFNSTFRVVSVLTVVHQDWLNGKEYKCKVSNKGLPSSIEKTISKTKGQPREPQVYTLPPSREEMTKNQVSLTCLVKGFYPSDIAVEWESNGQPENNYKTTPPMLDSDGSFFLYSRLTVDKSRWQQGNVFSCSVMHEALHNHYTQKSLSLSPGK", "light 1": "not shown", "heavy 2": "EVQLLESGGGLVQPGGSLRLSCAASGFTFSSYPMSWVRQAPGKGLEWVSAIGGSGGSLPYADIVKGRFTISRDNSKNTLYLQMNSLRAEDTAVYYCARYWPMDIWGQGTLVTVSSASTKGPSVFPLAPCSRSTSESTAALGCLVKDYFPEPVTVSWNSGALTSGVHTFPAVLQSSGLYSLSSVVTVPSSNFGTQTYTCNVDHKPSNTKVDKTVERKCEVECPECPAPPVAGPSVFLFPPKPKDTLMISRTPEVTCVVVAVSHEDPEVQFNWYVDGVEVHNAKTKPREEQFNSTFRVVSVLTVVHQDWLNGKEYKCKVSNKGLPSSIEKTISKTKGQPREPQVYTLPPSREEMTKNQVSLTCEVKGFYPSDIAVEWESNGQPENNYKTTPPMLDSDGSFFLYSKLTVDKSRWQQGNVFSCSVMHEALHNHYTQKSLSLSPGK", "light 2": "EIVLTQSPGTLSLSPGERATLSCRASQSVSSSYLAWYQQKPGQAPRLLMYDASIRATGIPDRFSGSGSGTDFTLTISRLEPEDFAVYYCQQYQSWPLTFGQGTKVEIKRTVAAPSVFIFPPSDEQLKSGTASVVCLLNNFYPREAKVQWKVDNALQSGNSQESVTEQDSKDSTYSLSSTLTLSKADYEKHKVYACEVTHQGLSSPVTKSFNRGEC"}}, "biological_target": "T1, B-cell maturation antigen (BCMA) (human, UniProt Q02223 1-184)", "T1 sequence (looked up)": "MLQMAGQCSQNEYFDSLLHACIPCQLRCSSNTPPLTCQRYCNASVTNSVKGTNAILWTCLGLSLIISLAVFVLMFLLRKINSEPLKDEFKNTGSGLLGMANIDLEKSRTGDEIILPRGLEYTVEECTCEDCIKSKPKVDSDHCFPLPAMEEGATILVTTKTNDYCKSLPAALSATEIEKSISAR", "experiment": "cell-based or functional assay"}
{"binder": "B1", "values": [{"measurement": "EC50 (nM) of cell viability, H929-Luc co-cultured with human CD3+ T cells, 72 hr, with GSI (nirogacestat)", "value": 0.0055, "unit": "nM"}, {"measurement": "EC50 (nM) of cell viability, H929-Luc co-cultured with human CD3+ T cells, 72 hr, without GSI", "value": 0.167, "unit": "nM"}, {"measurement": "EC50 (nM) of cell viability, Molp8-Luc co-cultured with human CD3+ T cells, 72 hr, with GSI (nirogacestat)", "value": 0.0202, "unit": "nM"}, {"measurement": "EC50 (nM) of cell viability, Molp8-Luc co-cultured with human CD3+ T cells, 72 hr, without GSI", "value": 0.108, "unit": "nM"}, {"measurement": "EC50 (nM) of cell viability, OPM2-Luc co-cultured with human CD3+ T cells, 72 hr, with GSI (nirogacestat)", "value": 0.0033, "unit": "nM"}, {"measurement": "EC50 (nM) of cell viability, OPM2-Luc co-cultured with human CD3+ T cells, 72 hr, without GSI", "value": 0.0528, "unit": "nM"}, {"measurement": "EC50 (nM) of cell viability, RPMI8226-Luc co-cultured with human CD3+ T cells, 72 hr, with GSI (nirogacestat)", "value": 0.0017, "unit": "nM"}, {"measurement": "EC50 (nM) of cell viability, RPMI8226-Luc co-cultured with human CD3+ T cells, 72 hr, without GSI", "value": 0.0092, "unit": "nM"}]}
